± gives the standard deviation of the averaged measurements.

The data set concerns ATP. In words: switch fluorescence ratio, 500 uM ATP over buffer (Cy3 cluster intensity, sum of 5 cycles each) (fold (ratio)); higher = stronger signal-on switching upon ATP binding; sequences stand for … in TCGTCGGCAGCGTCAGATGTGTATAAGAGACAGTTTTTTTTTTTTTTTTTTTTTTTTT…TC. As to conditions: aptamer strand: ATP DNA aptamer (quencher-CACCTGGGGGAGTATTGCGGAGGAAGG + anchor), 100 nM annealed; ATP concentration: 500 uM. The method in brief: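 Clusters carrying Cy3-labelled switching strands on a modified Illumina MiSeq flow-cell were annealed to 100 nM quencher-labelled ATP aptamer and imaged in selection buffer. They were imaged again after 15 min with 500 uM ATP at 22 °C, over five buffer/ATP cycles with NaOH stripping and re-annealing in between. For each cluster, the fluorescence ratio is the summed Cy3 intensity of the target cycles divided by that of the buffer cycles, averaged per switch-domain sequence. Clusters outside 100-1000 RFU were left out.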
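Also: ATP exposure 15 min at 22 °C before imaging.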

For the sequence CTGAACTCGA, the switch fluorescence ratio is 1.09 ± 0.046.

For the sequence CTGAAGCTGT, the switch fluorescence ratio came out at 2.64 ± 1.3.

CTGAAGGGAT: the switch fluorescence ratio was determined as 1.05 ± 0.023.

As to CTGAAGGTTG, the switch fluorescence ratio amounted to 0.9737 ± 0.0014.

On to CTGAATATGA, for which the switch fluorescence ratio amounted to 1 ± 0.065.

For the sequence CTGAATGC, the switch fluorescence ratio was found to be 1.17 ± 0.035.

Regarding CTGAATGCAG, the switch fluorescence ratio was 1.069 ± 0.0077.

As for CTGAATGTAG, the switch fluorescence ratio worked out at 1 ± 0.011.

As for CTGAATTAAG, the switch fluorescence ratio stood at 0.99 ± 0.016.

CTGAATTGGT: the switch fluorescence ratio stood at 0.975 ± 0.012.

With CTGAATTTCA, the switch fluorescence ratio stood at 0.9833 ± 0.0017.

In the case of CTGACATGAT, the switch fluorescence ratio stood at 1.07 ± 0.04.

In the case of CTGACCGGAG, the switch fluorescence ratio was 1.24 ± 0.036.

Regarding CTGACTCCTT, the switch fluorescence ratio was found to be 1.517 ± 0.015.

For the sequence CTGAGATTTT, the switch fluorescence ratio is 0.931 ± 0.018.

CTGAGCTTTC: the switch fluorescence ratio was determined as 1.29 ± 0.15.

On to CTGAGGTAAT, for which the switch fluorescence ratio worked out at 1.94 ± 0.21.

Regarding CTGATCATTC, the switch fluorescence ratio came out at 1.04 ± 0.045.

CTGATGGCGT: the switch fluorescence ratio was 1 ± 0.0068.

Turning to CTGATGGGTG, the switch fluorescence ratio worked out at 1.01 ± 0.013.

Turning to CTGATGGTAG, the switch fluorescence ratio worked out at 1.01 ± 0.015.

For CTGATGTACG, the switch fluorescence ratio was determined as 1.06 ± 0.12.

With CTGATGTGTA, the switch fluorescence ratio was found to be 0.965 ± 0.059.

CTGATGTTGT: the switch fluorescence ratio came to 1.0036 ± 0.00066.

Take CTGATTGTAC: the switch fluorescence ratio amounted to 1.08 ± 0.069.

On to CTGATTGTGT, for which the switch fluorescence ratio came out at 0.9718 ± 0.0034.

On to CTGATTTGTA, for which the switch fluorescence ratio was 1 ± 0.053.

Turning to CTGCAAGACA, the switch fluorescence ratio came to 2.64 ± 0.72.

For CTGCAGATCG, the switch fluorescence ratio was 1.02 ± 0.06.

For the sequence CTGCAGGGGA, the switch fluorescence ratio was found to be 1.05 ± 0.048.

As for CTGCATGGGG, the switch fluorescence ratio is 1.062 ± 0.0025.

Take CTGCGTCCAT: the switch fluorescence ratio was determined as 1.068 ± 0.01.

Turning to CTGCGTCGGA, the switch fluorescence ratio is 1.01 ± 0.032.

For the sequence CTGCGTCTTT, the switch fluorescence ratio turned out to be 1.03 ± 0.015.

Turning to CTGCTAATAT, the switch fluorescence ratio is 1.73 ± 0.14.

CTGCTAGGTA: the switch fluorescence ratio was found to be 0.9975 ± 0.0027.

On to CTGCTCGGTG, for which the switch fluorescence ratio amounted to 0.987 ± 0.062.

As to CTGCTTAAGG, the switch fluorescence ratio was found to be 1.04 ± 0.065.

CTGCTTCGAA: the switch fluorescence ratio amounted to 1.06 ± 0.023.

Take CTGGAAATGG: the switch fluorescence ratio came to 1.033 ± 0.0095.

Consider CTGGACAGTG, for which the switch fluorescence ratio was determined as 0.956 ± 0.013.

As to CTGGAGGACT, the switch fluorescence ratio is 1.026 ± 0.0098.

For the sequence CTGGATTGAG, the switch fluorescence ratio is 0.956 ± 0.027.

On to CTGGCCAAGT, for which the switch fluorescence ratio came out at 0.999 ± 0.02.

Take CTGGCGGAAA: the switch fluorescence ratio turned out to be 1.05 ± 0.093.

With CTGGCGTTCG, the switch fluorescence ratio is 0.983 ± 0.033.

For the sequence CTGGGAAGGG, the switch fluorescence ratio is 0.9281 ± 0.0061.

As to CTGGGAAGTG, the switch fluorescence ratio stood at 0.978 ± 0.003.

For CTGGGATGGG, the switch fluorescence ratio worked out at 1.06 ± 0.13.

For the sequence CTGGGGCGTG, the switch fluorescence ratio worked out at 1.02 ± 0.014.

Turning to CTGGGGGATG, the switch fluorescence ratio came out at 0.9863 ± 0.0027.

With CTGGGGGCGC, the switch fluorescence ratio worked out at 0.996 ± 0.03.

Regarding CTGGGGGGCT, the switch fluorescence ratio turned out to be 1.02 ± 0.021.

With CTGGGGGGTG, the switch fluorescence ratio is 1.02 ± 0.024.

On to CTGGGGGTAT, for which the switch fluorescence ratio was 1 ± 0.03.

Consider CTGGGGGTTA, for which the switch fluorescence ratio amounted to 0.999 ± 0.059.

Consider CTGGGGTAAT, for which the switch fluorescence ratio came to 1.028 ± 0.0095.

Take CTGGGGTGGC: the switch fluorescence ratio came out at 1.03 ± 0.046.

With CTGGGGTTGG, the switch fluorescence ratio came to 0.968 ± 0.012.

In the case of CTGGGTAATA, the switch fluorescence ratio stood at 1.08 ± 0.047.

Take CTGGGTATTG: the switch fluorescence ratio came out at 0.971 ± 0.012.

Take CTGGGTCTTT: the switch fluorescence ratio is 0.99 ± 0.015.

Regarding CTGGGTTGTA, the switch fluorescence ratio was determined as 1 ± 0.012.

Consider CTGGTAAGGT, for which the switch fluorescence ratio came out at 0.9947 ± 0.0074.

Take CTGGTAGGGT: the switch fluorescence ratio stood at 1.02 ± 0.02.

For CTGGTATAGT, the switch fluorescence ratio was determined as 1.03 ± 0.03.

Turning to CTGGTATGTG, the switch fluorescence ratio was 0.997 ± 0.029.

As for CTGGTCATGT, the switch fluorescence ratio stood at 0.995 ± 0.05.

Take CTGGTCGAAT: the switch fluorescence ratio came out at 1 ± 0.017.

CTGGTCGCT: the switch fluorescence ratio was 0.976 ± 0.017.

Regarding CTGGTGGTGG, the switch fluorescence ratio is 0.986 ± 0.075.

As for CTGGTTAAGG, the switch fluorescence ratio came out at 0.957 ± 0.017.

For CTGGTTATTT, the switch fluorescence ratio came out at 1.04 ± 0.076.

For CTGGTTGGAG, the switch fluorescence ratio was found to be 0.995 ± 0.022.

For CTGGTTTCGA, the switch fluorescence ratio is 1.017 ± 0.0082.

For CTGGTTTTCA, the switch fluorescence ratio was determined as 0.988 ± 0.024.

For the sequence CTGGTTTTGC, the switch fluorescence ratio was 0.998 ± 0.022.

Take CTGTAACGAG: the switch fluorescence ratio was 1.008 ± 0.0075.

For the sequence CTGTAAGGAA, the switch fluorescence ratio amounted to 0.989 ± 0.026.

Turning to CTGTAATGTT, the switch fluorescence ratio amounted to 0.992 ± 0.011.

CTGTAGAGAG: the switch fluorescence ratio stood at 1.01 ± 0.063.

For the sequence CTGTAGGCCC, the switch fluorescence ratio is 1.05 ± 0.097.

CTGTAGGGGG: the switch fluorescence ratio was 1.07 ± 0.13.

For the sequence CTGTAGGTGT, the switch fluorescence ratio worked out at 1.06 ± 0.029.

Take CTGTAGTCTG: the switch fluorescence ratio worked out at 1.11 ± 0.019.

For the sequence CTGTATTAGT, the switch fluorescence ratio worked out at 1.02 ± 0.027.

As for CTGTATTCGC, the switch fluorescence ratio was found to be 1.172 ± 0.0037.

For CTGTCAGACT, the switch fluorescence ratio came to 1.03 ± 0.058.

For CTGTCTGGGG, the switch fluorescence ratio came to 0.9737 ± 0.0033.

For CTGTCTGGGT, the switch fluorescence ratio was 0.993 ± 0.029.

On to CTGTGACAAT, for which the switch fluorescence ratio worked out at 1.04 ± 0.029.

For CTGTGAGGCT, the switch fluorescence ratio came out at 1 ± 0.042.

For CTGTGCAAGT, the switch fluorescence ratio was 1.47 ± 0.073.

Regarding CTGTGCGCCC, the switch fluorescence ratio is 1.09 ± 0.058.

On to CTGTGGTGGG, for which the switch fluorescence ratio turned out to be 0.996 ± 0.051.

With CTGTGTTGTG, the switch fluorescence ratio was found to be 0.998 ± 0.015.

In the case of CTGTTAATTG, the switch fluorescence ratio worked out at 1.016 ± 0.0081.

Turning to CTGTTACGCA, the switch fluorescence ratio was determined as 1.201 ± 0.0046.

As for CTGTTCATGG, the switch fluorescence ratio stood at 1.02 ± 0.019.

Turning to CTGTTCATTG, the switch fluorescence ratio is 0.9807 ± 0.0037.

Regarding CTGTTCTTTG, the switch fluorescence ratio came out at 0.982 ± 0.019.

Regarding CTGTTGACTG, the switch fluorescence ratio is 0.983 ± 0.041.

For the sequence CTGTTTAAGG, the switch fluorescence ratio is 0.986 ± 0.013.

As for CTGTTTAGTC, the switch fluorescence ratio worked out at 1.01 ± 0.015.

CTGTTTCACA: the switch fluorescence ratio was 0.949 ± 0.046.

Regarding CTGTTTGGGG, the switch fluorescence ratio was determined as 1.004 ± 0.0028.

Regarding CTGTTTTGGG, the switch fluorescence ratio is 1.03 ± 0.032.

For CTGTTTTTTG, the switch fluorescence ratio was 0.976 ± 0.03.

As for CTTAAAGTGC, the switch fluorescence ratio came out at 1.05 ± 0.069.

CTTAAAGTTA: the switch fluorescence ratio came to 1.01 ± 0.018.

Turning to CTTAAATTGT, the switch fluorescence ratio came out at 1.01 ± 0.011.

Take CTTAAATTTA: the switch fluorescence ratio was determined as 1.02 ± 0.022.

Take CTTAACAGAA: the switch fluorescence ratio stood at 0.9912 ± 0.0059.

Consider CTTAATTTTG, for which the switch fluorescence ratio is 0.973 ± 0.027.

As to CTTACAAGC, the switch fluorescence ratio stood at 1.04 ± 0.026.

As to CTTACGCAGC, the switch fluorescence ratio amounted to 1.59 ± 0.016.

Regarding CTTACTATTC, the switch fluorescence ratio worked out at 0.9715 ± 0.0069.

On to CTTAGAAAGC, for which the switch fluorescence ratio came out at 1.05 ± 0.022.

CTTAGAATCG: the switch fluorescence ratio stood at 1 ± 0.025.

As to CTTAGAATGA, the switch fluorescence ratio is 0.979 ± 0.025.

The values are drawn from the supplement of paper PMC10126150.
